From article PMC8409790 (mAbs, 2021) come the findings set out here.

First the molecules themselves.
B1: Human single-chain (sc) IL-23 (IL-12p40(23-328)-(GGGGS)x4-IL-23p19(21-189)-TEV-FLAG-8His) (ligand)
chain: IWELKKDVYVVELDWYPDAPGEMVVLTCDTPEEDGITWTLDQSSEVLGSGKTLTIQVKEFGDAGQYTCHKGGEVLSHSLLLLHKKEDGIWSTDILKDQKEPKNKTFLRCEAKNYSGRFTCWWLTTISTDLTFSVKSSRGSSDPQGVTCGAATLSAERVRGDNKEYEYSVECQEDSACPAAEESLPIEVMVDAVHKLKYENYTSSFFIRDIIKPDPPKNLQLKPLKNSRQVEVSWEYPDTWSTPHSYFSLTFCVQVQGKSKREKKDRVFTDKTSATVICRKNASISVRAQDRYYSSSWSEWASVPCSGGGGSGGGGSGGGGSGGGGSAVPGGSSPAWTQCQQLSQKLCTLAWSAHPLVGHMDLREEGDEETTNDVPHIQCGDGCDPQGLRDNSQFCLQRIHQGLIFYEKLLGSDIFTGEPSLLPDSPVGQLHASLLGLSQLLQPEGHHWETQQIPSLSPSQPWQRLLLRFKILRSLQAFVAVAARVFAHGAATLSP
B2: Human IL-23Rα protein (receptor)
chain: GITNINCSGHIWVEPATIFKMGMNISIYCQAAIKNCQPRKLHFYKNGIKERFQITRINKTTARLWYKNFLEPHASMYCTAECPKHFQETLICGKDISSGYPPDIPDEVTCVIYEYSGNMTCTWNAGKLTYIDTKYVVHVKSLETEEEQQYLTSSYINISTDSLQGGKKYLVWVQAANALGMEESKQLQIHLDDIVIPSAAVISRAETINATVPKTIIYWDSQTTIEKVSCEMRYKATTNQTWNVKEFDTNFTYVQQSEFYLEPNIKYVFQVRCQETGKRYWQPWSSLFFHKTPETVPQVTSKAFQHDTWNSGLTVASISTGHLTSDNRGDIG

Experiment in all cases: SPR
For orientation: SPR reads the build-up and loss of mass on a sensor chip optically.

The test “Human IL-23Rα protein” has as its target B2.
In another test the target is Human IL-12Rβ1-Fc (human, UniProt P42701).
In test [1] the target is B1.

In the case of B1, the results for the Kd with Human IL-23Rα protein and in the test with Human IL-12Rβ1-Fc were 0.8 nM and 19 nM, respectively.

Take B2: in test [1], the “KD with a saturating amount of tildrakizumab bound to IL-23” value stood at 190 nM.
